From publication PMC8558179, “The C-terminal peptide of CCL21 drastically augments CCL21 activity through the dendritic cell lymph node homing receptor CCR7 by interaction with the receptor N-terminus” (Cellular and Molecular Life Sciences: CMLS, 2021)
Residue numbers refer to the chain shown, from its start. Entries after “also recorded” stand apart in the source; their conditions may differ. Blank lines part the entries; values can stand above or below the molecule they belong to.

Assays:
human CCR7 [1] = molecular target: T1, human CCR7 (Homo sapiens, UniProt P32248); assay: Gαi signaling, BRET-based cAMP (CAMYEL) assay at CCR7 in CHO cells; assay type: cell-based; conditions: for effect of C21TP on CCL21^Tailless activity (Gαi signaling): CCL21^Tailless (CCL21 1–79) + 10 µM TP71-111, n = 4
T1 construct: CCR7 contains a 24-residue long signal peptide cleaved of from the mature protein; expressed in transfected cells; host or cells: CHO cells (CHO-K1, CHO suspension WT, GAG-deficient and 5xKO GalNAc-T knockout lines), transient transfection
T1 sequence (P32248 25-378): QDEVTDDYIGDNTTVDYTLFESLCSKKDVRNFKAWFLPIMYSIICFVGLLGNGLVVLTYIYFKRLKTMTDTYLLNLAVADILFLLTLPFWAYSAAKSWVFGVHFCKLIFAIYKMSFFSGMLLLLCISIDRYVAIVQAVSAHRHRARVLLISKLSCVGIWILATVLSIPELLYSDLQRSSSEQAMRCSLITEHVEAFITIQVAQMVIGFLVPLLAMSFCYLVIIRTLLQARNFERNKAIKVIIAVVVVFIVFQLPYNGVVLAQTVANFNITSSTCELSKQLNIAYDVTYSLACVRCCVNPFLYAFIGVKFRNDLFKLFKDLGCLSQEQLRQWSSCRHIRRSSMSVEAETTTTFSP
Protocol: Human DCs were cultured in X-vivo 15 medium with 2% human AB serum and glutamine. CHO-K1 pgsB-618 ATCC® CRL2241™ [24] and CHO-K1 cells were grown in RPMI with 10% FBS and Penicillin/Streptomycin. HS^−/− (CHO EXTL 2/3 −/−), CS^−/− (CSGALNACT 1/2^−/− CHSY1^−/−), 5xKO (GalNAc-T1, 2, 4, 7 and 10 −/−) and WT CHO suspension cells were grown in suspension in 1:1 of EX-Cell CD CHO fusion media and Balanced CD CHO growth A medium supplemented with 2% glutamine and Penicillin/Streptomycin. Cells were kept in a humidified incubator at 37 °C, 5% CO2.
(§1) For cAMP assays, adherent CHO cells were transfected using lipofectamine while suspension cells were transfected using the FectoPro method. Cells were seeded in a 6-well plate, either 500,000 (adherent cells) or 200,000 (suspension cells) cells/well. The next day the cells were transiently transfected with vectors encoding the human CCR7 and CAMYEL sensor (cAMP sensor using YFP-Epac-RLuc) in a 1:5 ratio using lipofectamine (6 µl/well) or FectoPro (4 µl/well). Lipofectamine transfections were terminated by changing to 2 ml fresh cultivation medium after 5 h, while Fectopro transfection was terminated after 3 h by adding 2.5 ml fresh cultivation medium and 2 µl FectoPro Boost reagent per well. The cells were incubated under standard cultivation conditions overnight. For β-arrestin recruitment assays, cells were transfected with CCR7 and vectors expressing a Renilla luciferase arrestin3 fusion protein and membrane-SH3-citrine protein. The cells were then resuspended in PBS w/glucose and seeded in 96-well white iso plates (~ 25,000 cells/well). Coelenterazine (bioluminescence substrate) was added to a final conc. of 5 µM. After 10 min, cells were stimulated with varying ligand concentrations for a total of 40 min. Forskolin was added to each well 5 min after ligand addition to reach a final conc. of 5 µM. The plates were kept in the dark at all times. Emission signal from Rluc and eYFP was measured using the Envision machine at 530 and 480 nm and the BRET signal determined as the ratio between (eYFP/Rluc).

human CCR7 [2] = molecular target: T1, human CCR7; assay: β-arrestin recruitment, BRET-based assay at CCR7; assay type: cell-based
Protocol: as §1

[3] = molecular target: T2, CCR7^−O (CCR7 T37/38/42A) (Homo sapiens, UniProt P32248, T37A/T38A/T42A); assay: Gαi signaling, BRET cAMP assay, CCR7 lacking N-terminal O-glycosylation sites; assay type: cell-based
T2 construct: CCR7 contains a 24-residue long signal peptide cleaved of from the mature protein; expressed in transfected cells; host or cells: CHO cells, transient transfection
T2 sequence (P32248 25-378 T37A/T38A/T42A): T1 sequence (P32248 25-378) with T13A, T14A, T18A
Protocol: O-glycosylation deficient CCR7 was generated from WT through Quick change PCR using the following primers: […]
as §1

CCR7-N (CCR7 N36/292A) = assay: Gαi signaling, BRET cAMP assay, CCR7 lacking N-glycosylation sites; assay type: cell-based, human; conditions: CCL21 alone or CCL21 + 10 µM TP71-111, CHO cells, n = 3
Protocol: For cAMP assays, adherent CHO cells were transfected using lipofectamine while suspension cells were transfected using the FectoPro method. Cells were seeded in a 6-well plate, either 500,000 (adherent cells) or 200,000 (suspension cells) cells/well. The next day the cells were transiently transfected with vectors encoding the human CCR7 and CAMYEL sensor (cAMP sensor using YFP-Epac-RLuc) in a 1:5 ratio using lipofectamine (6 µl/well) or FectoPro (4 µl/well). Lipofectamine transfections were terminated by changing to 2 ml fresh cultivation medium after 5 h, while Fectopro transfection was terminated after 3 h by adding 2.5 ml fresh cultivation medium and 2 µl FectoPro Boost reagent per well. The cells were incubated under standard cultivation conditions overnight. […] Emission signal from Rluc and eYFP was measured using the Envision machine at 530 and 480 nm and the BRET signal determined as the ratio between (eYFP/Rluc).
Supplementary file 18_2021_3930_MOESM4_ESM.png: Supplementary file4 C21TP boosting ability is not dependent on N-glycosylation sites. […] Signaling was measured in CHO cells quantified using the BRET based cAMP assay. […] Statistical significance was calculated using two-way ANOVA with Tukey’s correction for multiple test. *P<0.05, **P <0.01, ***P<0.001 (PNG 328 KB)

- fold reduction of C21TP boosting effect on CCL21 signaling in 5xKO vs WT (human CCR7 [1]; CCL21 + 10 µM TP71-111, CHO 5xKO vs WT): 25 fold
- effect of C21TP on CCL21^Tailless activity (Gαi signaling) (human CCR7 [1]): not improved
- effect of C21TP on CCL21^Tailless activity (Gαi signaling) (human CCR7 [1]; listed as C21TP): did not affect CCL21^Tailless potency
- fold boost of CCL21 signaling activity via CCR7 (human CCR7 [1]; in the presence of C21TP): ~ 100 fold
- effect of C21TP on CCL21^Tailless β-arrestin recruitment (human CCR7 [2]; CCL21^Tailless (CCL21 1–79) + 10 µM TP71-111, n = 4): small but significant decrease
- boosting of CCL19 signaling by C21TP at CCR7^−O ([3]; CCL19 + 10 µM TP71-111, CCR7^−O vs WT CCR7): diminished
Molecule: TP71-111: free CCL21 C-terminal peptide, residues 71–111 (41 amino acids, positively charged) (PSPQKPAQGCRKDRGASKTGKKGKGSKGCKRTERSQTPKGP; UniProt O00585 94-134, looked up, fragment)
- boosting of CCL21-induced CCR7 signaling in GAG KO cells (human CCR7 [1]; CHO GAG KO (pgsB 618) vs WT, 10 µM TP71-111, n = 3): tendency that boosting by C21TP (TP71-111) was increased
- boosting of CCL21-induced CCR7 signaling in GAG-deficient cells (human CCR7 [1]; CHO HS−/−, CS−/− and GAG KO (pgsB 618) cells, 10 µM TP71-111, n = 3): In none of the GAG-deficient cells did we measure any decrease
- boosting of CCL19-induced CCR7 signaling in GAG-deficient cells (human CCR7 [1]; CHO HS−/−, CS−/−, GAG KO cells, 10 µM TP71-111, n = 3, listed as C21TP): similarly unaffected by the lack of GAGs; also recorded: independent of cell GAG status
- effect of removing extracellular N-glycosylation sites on signaling or boosting (CCR7-N) (CCR7-N (CCR7 N36/292A)): no effect

- pEC50, Gαi signaling, chemokine alone (human CCR7 [1]; no peptide, CHO cells, forskolin 5 µM, n = 4): 6.46
- pEC50, β-arrestin recruitment, chemokine alone (human CCR7 [2]; no peptide, n = 4): undetectable
B1: CCL21: full-length chemokine (residues 1–111), CCR7 ligand, from R&D Systems (protein, UniProt O00585 24-134, looked up)
C-C motif chemokine 21: SDGGAQDCCLKYSQRKIPAKVVRSYRKQEPSLGCSIPAILFLPRKRSQAELCADPKELWVQQLMQHLDKTPSPQKPAQGCRKDRGASKTGKKGKGSKGCKRTERSQTPKGP
- chemokine activity on its own at CCR7^−O ([3]; no peptide, CCR7^−O vs WT CCR7): almost unaffected; also recorded: without affecting basal CCR7 activation via CCL19 and CCL21
- effect of removing extracellular N-glycosylation sites on signaling or boosting (CCR7-N) (CCR7-N (CCR7 N36/292A)): no effect
